For three sequences, Kd results are on record in article PMC3988186.

One data set addresses beta-arrestin 2 (UniProt P32121). To be noted: 2'-F pyrimidines (2'F-C, 2'F-U); Kd assay buffer not stated separately; selection buffer F: 20 mM HEPES pH 7.4, 150 mM NaCl, 1 mM CaCl2, 1 mM MgCl2, 0.01% BSA, 37 C.
The next data set deals with beta-arrestin 1 (UniProt P49407). Particulars: 2'-F pyrimidines (2'F-C, 2'F-U); Kd assay buffer not stated separately; selection buffer F: 20 mM HEPES pH 7.4, 150 mM NaCl, 1 mM CaCl2, 1 mM MgCl2, 0.01% BSA, 37 C.
beta-arrestin 1, sequence (P49407 whole entry): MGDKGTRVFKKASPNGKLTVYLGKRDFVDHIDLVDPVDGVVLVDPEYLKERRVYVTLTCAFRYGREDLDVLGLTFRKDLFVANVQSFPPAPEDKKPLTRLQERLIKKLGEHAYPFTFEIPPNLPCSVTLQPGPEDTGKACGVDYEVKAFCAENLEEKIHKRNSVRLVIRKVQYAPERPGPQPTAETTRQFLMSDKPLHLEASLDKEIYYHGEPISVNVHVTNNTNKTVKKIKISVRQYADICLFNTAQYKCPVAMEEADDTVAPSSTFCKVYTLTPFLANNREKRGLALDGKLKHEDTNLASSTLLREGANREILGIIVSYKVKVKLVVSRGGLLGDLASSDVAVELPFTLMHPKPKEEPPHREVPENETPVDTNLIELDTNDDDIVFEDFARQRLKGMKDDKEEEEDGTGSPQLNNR

beta-arrestin 2, sequence (P32121 whole entry): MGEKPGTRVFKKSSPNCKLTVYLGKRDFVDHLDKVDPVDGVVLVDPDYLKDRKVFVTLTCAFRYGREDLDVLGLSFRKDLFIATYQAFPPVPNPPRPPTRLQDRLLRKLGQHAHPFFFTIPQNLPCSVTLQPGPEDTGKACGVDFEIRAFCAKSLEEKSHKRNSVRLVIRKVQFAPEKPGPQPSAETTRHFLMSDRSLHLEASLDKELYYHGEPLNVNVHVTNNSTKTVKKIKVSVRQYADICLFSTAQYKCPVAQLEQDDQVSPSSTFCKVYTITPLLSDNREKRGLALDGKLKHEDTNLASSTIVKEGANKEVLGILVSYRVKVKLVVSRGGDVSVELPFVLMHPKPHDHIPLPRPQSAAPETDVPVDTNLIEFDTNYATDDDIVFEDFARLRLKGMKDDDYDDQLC

Turning to “GGGAGGACGAUGCGGCCAGGUGUAGACAGACGUGAGAGAUUGACCUGGCAGCAGCCAGACGACUCGCUGAGGAUCCGAGA [beta-arr2A2]”, the equilibrium dissociation constant (Kd) stood at 4.13 nM with beta-arrestin 2 and 2160 nM with beta-arrestin 1.
The corresponding values for “GGGAGGACGAUGCGGAUCCUCGUCCCGUCACGGCAGAACCACGUCAGGCCUUCAACAGACGACUCGCUGAGGAUCCGAGA [beta-arr2A3]” are 22 nM and 748 nM.
Regarding “GGGAGGACGAUGCGGAUUCCGUUAAGUAUCGCGUUAAACGCUAUGCGGACGCGUCAGACGACUCGCUGAGGAUCCGAGA [beta-arr2A1]”, the dissociation constant Kd with beta-arrestin 2 stood at 19.8 nM; with beta-arrestin 1 it was 966 nM.

Broadly, the Kd is a measure of binding affinity in units of concentration. The low end stands for a tighter complex, the high end for a looser complex.
